{
  "source": "paper PMC2866327",
  "about": "(2010)",
  "binders": {"B1": {"name": "retro-inverso peptide hydroxamate Xaa-Arg-Tyr with Phe at P1' (peptide)", "peptide": "Phe-[dR]-[dY]", "modifications": "not fully specified (residue 1, N-terminus); also: retro-inverso (reversed backbone)"}},
  "target": "insulin-degrading enzyme (recombinant human IDE) (human, UniProt P14735 1-1019)",
  "note": "Square brackets hold non-standard residues; d marks the D form. Ends that are not written are not given here.",
  "data": [
    {"binder": "B1", "values": [
      {"measurement": "Ki", "value": 20, "unit": "µM"}
    ]}
  ]
}
